According to PMC10754441:

Target: T1, TipR (Caulobacter crescentus NA1000) (UniProt A0A0H3C6G9)
T1 sequence: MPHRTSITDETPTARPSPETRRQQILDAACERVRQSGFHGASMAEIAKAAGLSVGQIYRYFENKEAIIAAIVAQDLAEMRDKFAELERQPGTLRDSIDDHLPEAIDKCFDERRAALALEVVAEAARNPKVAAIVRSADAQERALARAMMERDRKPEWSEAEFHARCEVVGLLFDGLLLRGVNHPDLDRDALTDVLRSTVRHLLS
Assay: EMSA
Settings: EMSA: 40 mM Tris-HCl pH 7.6, 60 mM KCl, 0.1% glycerol, 240 ug calf DNA, 800 ug BSA, 100-200 ng probe, 30 min room temperature; 4% native TBE acrylamide gel

GGCGGCGAGTCCCACGGTCGTCGCCGCGACCGAGCGTTGGAAATGCATGTTTGACCCCGGGAGGCGAGGGTCGCGCGGGCTCTTACCCTTGACGCGGCCACTATGATGAACGATTTGAGAATGAACGTTCATTCTCATGTGGGCTGGACATAAGAGCTGGAGTGTCGCAAGTCAACCTCCGGCGCCGCGCGTTTGGCTGACCTAACGGAAATGTAATGCCGCACAGGACTTC (double strand) [PacrA]
binding: binds
